Data as given in PMC4423211 (2015).
Values belong to the molecule of their own block, whether it stands above or below them.

Tests used:
[1] = biological target: IL-1RAcP-ECD-Fc, wild type (mouse) (UniProt Q61730); experiment: SPR; equilibrium; Biacore T200, 25 °C, 10 mM Hepes (pH 7.9), 150 mM NaCl, 0.05% Tween-20; IL-1RAcP-ECD-Fc captured (about 700 RU) by anti-Fc antibodies immobilised on a CM5 chip; PTPδ Ig1–Fn1 variants or mutants injected as analytes, 15.6 to 4,000 nM
[2] = biological target: IL1RAPL1-ECD-His6, wild type (mouse) (UniProt P59823); experiment: SPR; equilibrium; Biacore T200, 25 °C, 10 mM Hepes (pH 7.9), 150 mM NaCl, 0.05% Tween-20; IL1RAPL1-ECD-His6 amine-coupled on a CM5 chip (about 2,000 RU); PTPδ Ig1–Fn1 variants or mutants injected as analytes, 15.6 to 4,000 nM
[3] = biological target: IL1RAPL1-ECD-His6, wild type (mouse) (UniProt P59823)
IL1RAP = biological target: T1, IL1RAP (Mus musculus (Mouse), UniProt Q61730); experiment: SPR equilibrium 25C, PTPRD Ig1-Fn1 analyte
T1 chain: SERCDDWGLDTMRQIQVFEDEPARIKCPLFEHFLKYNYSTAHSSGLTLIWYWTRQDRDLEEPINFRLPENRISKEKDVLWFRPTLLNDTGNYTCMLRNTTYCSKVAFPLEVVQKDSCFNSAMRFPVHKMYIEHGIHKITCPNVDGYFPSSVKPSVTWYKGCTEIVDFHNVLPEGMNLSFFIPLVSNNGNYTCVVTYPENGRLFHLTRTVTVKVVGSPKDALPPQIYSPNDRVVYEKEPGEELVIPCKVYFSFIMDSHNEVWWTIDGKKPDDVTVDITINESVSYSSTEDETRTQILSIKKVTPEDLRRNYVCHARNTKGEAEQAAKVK

IL1RAPL1 = biological target: T2, IL1RAPL1 (Mus musculus (Mouse), UniProt P59823); experiment: SPR equilibrium 25C, PTPRD Ig1-Fn1 analyte
T2 chain: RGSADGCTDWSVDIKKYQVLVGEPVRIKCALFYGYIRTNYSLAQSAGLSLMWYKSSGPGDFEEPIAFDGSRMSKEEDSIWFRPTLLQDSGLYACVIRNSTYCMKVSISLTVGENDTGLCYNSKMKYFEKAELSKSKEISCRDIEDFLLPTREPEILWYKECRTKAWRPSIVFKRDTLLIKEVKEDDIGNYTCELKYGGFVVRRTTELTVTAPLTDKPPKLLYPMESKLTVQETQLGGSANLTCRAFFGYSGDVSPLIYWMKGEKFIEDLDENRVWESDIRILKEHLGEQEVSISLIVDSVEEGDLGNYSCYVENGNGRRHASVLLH

IL1RAPL1-ECD-His6, wild type (mouse), sequence (P59823 19-352): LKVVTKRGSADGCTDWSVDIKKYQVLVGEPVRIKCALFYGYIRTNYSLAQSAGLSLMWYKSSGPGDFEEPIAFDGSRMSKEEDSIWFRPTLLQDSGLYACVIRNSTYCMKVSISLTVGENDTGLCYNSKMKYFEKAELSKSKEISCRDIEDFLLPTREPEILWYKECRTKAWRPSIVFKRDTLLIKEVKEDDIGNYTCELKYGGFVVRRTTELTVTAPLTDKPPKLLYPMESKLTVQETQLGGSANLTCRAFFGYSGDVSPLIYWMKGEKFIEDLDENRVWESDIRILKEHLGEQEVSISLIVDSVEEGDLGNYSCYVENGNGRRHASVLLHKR

Kd [1]: 0.89 µM | Kd [2]: 1.7 µM
Molecule: PTPδ Ig1–Fn1 R196A (domain or fragment)

Kd [2]: 0.86 µM
Molecule: PTPδ Ig1–Fn1 Y273A (domain or fragment)

Kd [1]: 0.51 µM
Molecule: PTPδ Ig1–Fn1 splicing variant meA3/+ (domain or fragment)

Kd [1]: 2.8 µM
Molecule: PTPδ Ig1–Fn1 splicing variant meA3/− (domain or fragment)

Kd [1]: 0.73 µM | Kd [2]: 0.81 µM
Molecule: PTPδ Ig1–Fn1 splicing variant meA6/+ (domain or fragment)

Kd [1]: 2.3 µM
Molecule: PTPδ Ig1–Fn1 splicing variant meA6/− (domain or fragment)

Kd [1]: 0.91 µM | Kd [2]: 0.16 µM
Molecule: PTPδ Ig1–Fn1, meB replaced by Gln-Leu-Glu-Gln (domain or fragment)

Kd (IL1RAP): 2.2 µM | Kd (IL1RAPL1): > 4 µM
B1: PTPRD_A0B1 (protein)
chain: ETPPRFTRTPVDQTGVSGGVASFICQATGDPRPKIVWNKKGKKVSNQRFEVIEFDDGSGSVLRIQPLRTPRDEAIYECVASNNVGEISVSTRLTVLREDQIPRGFPTIDMGPQLKVVERTRTATMLCAASGNPDPEITWFKDFLPVDTSNNNGRIKQLRSGALQIEQSEESDQGKYECVATNSAGTRYSAPANLYVRELREVRRVPPRFSIPPTNHEIMPGGSVNITCVAVGSPMPYVKWMLGAEDLTPEDDMPIGRNVLELNDVRQSANYTCVAMSTLGVIEAIAQITVKA

Kd (IL1RAP): 0.68 µM | Kd (IL1RAPL1): 0.15 µM
B2: PTPRD_A9B1 (protein)
chain: ETPPRFTRTPVDQTGVSGGVASFICQATGDPRPKIVWNKKGKKVSNQRFEVIEFDDGSGSVLRIQPLRTPRDEAIYECVASNNVGEISVSTRLTVLREDQIPRGFPTIDMGPQLKVVERTRTATMLCAASGNPDPEITWFKDFLPVDTSNNNGRIKQLRSESIGGTPIRGALQIEQSEESDQGKYECVATNSAGTRYSAPANLYVRELREVRRVPPRFSIPPTNHEIMPGGSVNITCVAVGSPMPYVKWMLGAEDLTPEDDMPIGRNVLELNDVRQSANYTCVAMSTLGVIEAIAQITVKA

Kd (IL1RAP): 2 µM | Kd (IL1RAPL1): 0.8 µM
B4: PTPRD_A9B0 (protein)
chain: ETPPRFTRTPVDQTGVSGGVASFICQATGDPRPKIVWNKKGKKVSNQRFEVIEFDDGSGSVLRIQPLRTPRDEAIYECVASNNVGEISVSTRLTVLREDQIPRGFPTIDMGPQLKVVERTRTATMLCAASGNPDPEITWFKDFLPVDTSNNNGRIKQLRSESIGGTPIRGALQIEQSEESDQGKYECVATNSAGTRYSAPANLYVRVRRVPPRFSIPPTNHEIMPGGSVNITCVAVGSPMPYVKWMLGAEDLTPEDDMPIGRNVLELNDVRQSANYTCVAMSTLGVIEAIAQITVKA

Kd (IL1RAP): 0.51 µM | Kd (IL1RAPL1): > 4 µM
B5: PTPRD_A3B1 (protein)
chain: ETPPRFTRTPVDQTGVSGGVASFICQATGDPRPKIVWNKKGKKVSNQRFEVIEFDDGSGSVLRIQPLRTPRDEAIYECVASNNVGEISVSTRLTVLREDQIPRGFPTIDMGPQLKVVERTRTATMLCAASGNPDPEITWFKDFLPVDTSNNNGRIKQLRSESIGALQIEQSEESDQGKYECVATNSAGTRYSAPANLYVRELREVRRVPPRFSIPPTNHEIMPGGSVNITCVAVGSPMPYVKWMLGAEDLTPEDDMPIGRNVLELNDVRQSANYTCVAMSTLGVIEAIAQITVKA

Kd (IL1RAP): 2.8 µM | Kd (IL1RAPL1): > 4 µM
B6: PTPRD_A3B0 (protein)
chain: ETPPRFTRTPVDQTGVSGGVASFICQATGDPRPKIVWNKKGKKVSNQRFEVIEFDDGSGSVLRIQPLRTPRDEAIYECVASNNVGEISVSTRLTVLREDQIPRGFPTIDMGPQLKVVERTRTATMLCAASGNPDPEITWFKDFLPVDTSNNNGRIKQLRSESIGALQIEQSEESDQGKYECVATNSAGTRYSAPANLYVRVRRVPPRFSIPPTNHEIMPGGSVNITCVAVGSPMPYVKWMLGAEDLTPEDDMPIGRNVLELNDVRQSANYTCVAMSTLGVIEAIAQITVKA

Kd (IL1RAP): 2.4 µM | Kd (IL1RAPL1): > 4 µM
B8: PTPRD_A0B0 (protein)
chain: ETPPRFTRTPVDQTGVSGGVASFICQATGDPRPKIVWNKKGKKVSNQRFEVIEFDDGSGSVLRIQPLRTPRDEAIYECVASNNVGEISVSTRLTVLREDQIPRGFPTIDMGPQLKVVERTRTATMLCAASGNPDPEITWFKDFLPVDTSNNNGRIKQLRSGALQIEQSEESDQGKYECVATNSAGTRYSAPANLYVRVRRVPPRFSIPPTNHEIMPGGSVNITCVAVGSPMPYVKWMLGAEDLTPEDDMPIGRNVLELNDVRQSANYTCVAMSTLGVIEAIAQITVKA

Second part, the molecule before the results:

Molecule: PTPδ Ig1–Fn1 E286A (domain or fragment)
Kd [1]: 5.3 µM

Molecule: PTPδ Ig1–Fn1 R75A (domain or fragment)
Kd [1]: 1.1 µM | Kd [2]: 2.8 µM | synaptogenic (postsynapse-inducing) activity: accumulation of Shank2 in cortical neurons around magnetic beads conjugated with PTPδ-ECD-Fc R75A, against wild-type PTPδ-ECD-Fc [3]: 7%

Molecule: PTPδ Ig1–Fn1 splicing variant meA9/− (domain or fragment)
Kd [1]: 2 µM | Kd [2]: 0.8 µM

Molecule: PTPδ Ig1–Fn1 splicing variant −/+ (no meA, with meB) (domain or fragment)
Kd [1]: 2.2 µM

Molecule: PTPδ Ig1–Fn1 splicing variant −/− (lacking both meA and meB) (domain or fragment)
Kd [1]: 2.4 µM

Molecule: PTPδ Ig1–Fn1, meB replaced by Gly-Ser-Ser-Gly (domain or fragment)
Kd [1]: 0.64 µM | Kd [2]: 0.14 µM

Molecule: PTPδ Ig1–Fn1, meB replaced by three tandem units of meB (domain or fragment)
Kd [1]: 3.8 µM | Kd [2]: 0.42 µM

Molecule: PTPδ Ig1–Fn1, meB replaced by two tandem units of meB (domain or fragment)
Kd [1]: 1.5 µM | Kd [2]: 0.15 µM

B3: PTPRD_A6B1 (protein)
chain: ETPPRFTRTPVDQTGVSGGVASFICQATGDPRPKIVWNKKGKKVSNQRFEVIEFDDGSGSVLRIQPLRTPRDEAIYECVASNNVGEISVSTRLTVLREDQIPRGFPTIDMGPQLKVVERTRTATMLCAASGNPDPEITWFKDFLPVDTSNNNGRIKQLRSGGTPIRGALQIEQSEESDQGKYECVATNSAGTRYSAPANLYVRELREVRRVPPRFSIPPTNHEIMPGGSVNITCVAVGSPMPYVKWMLGAEDLTPEDDMPIGRNVLELNDVRQSANYTCVAMSTLGVIEAIAQITVKA
Kd (IL1RAP): 0.73 µM | Kd (IL1RAPL1): 0.81 µM

B7: PTPRD_A6B0 (protein)
chain: ETPPRFTRTPVDQTGVSGGVASFICQATGDPRPKIVWNKKGKKVSNQRFEVIEFDDGSGSVLRIQPLRTPRDEAIYECVASNNVGEISVSTRLTVLREDQIPRGFPTIDMGPQLKVVERTRTATMLCAASGNPDPEITWFKDFLPVDTSNNNGRIKQLRSGGTPIRGALQIEQSEESDQGKYECVATNSAGTRYSAPANLYVRVRRVPPRFSIPPTNHEIMPGGSVNITCVAVGSPMPYVKWMLGAEDLTPEDDMPIGRNVLELNDVRQSANYTCVAMSTLGVIEAIAQITVKA
Kd (IL1RAP): 2.3 µM | Kd (IL1RAPL1): > 4 µM
